# Results from PMC12439581 (mAbs, 2025).
# “And” between values parts separate entries of the source, which are not always exact repeats. Identical values can stand only once.
# Key:
# [1] = target: T1, biotinylated α-elapitoxin-Dpp2d from Dendroaspis polylepis (Dendroaspis polylepis (black mamba), UniProt C0HJD7); assay: BLI; […]; association at pH 7.4, dissociation at pH 5.5; 1:1 global fit; conditions: both partners purified
# T1 sequence (C0HJD7 whole entry): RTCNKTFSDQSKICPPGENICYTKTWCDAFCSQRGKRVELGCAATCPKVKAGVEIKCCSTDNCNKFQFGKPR
# [2] = target: T2, biotinylated α-bungarotoxin from Bungarus multicinctus (Bungarus multicinctus); assay: BLI; […]; association at pH 7.4, dissociation at pH 7.4; 1:1 global fit, […]; conditions: both partners purified
# T2 sequence (P60615 22-95): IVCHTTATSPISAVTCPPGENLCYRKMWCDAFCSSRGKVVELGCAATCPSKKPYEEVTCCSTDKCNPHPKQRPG
# [3] = target: T1, biotinylated α-elapitoxin-Dpp2d from …; assay: as above; conditions: both partners purified
# [4] = target: T3, biotinylated α-cobratoxin from Naja kaouthia (Naja kaouthia, biotin through amine coupling (NHS-PEG4-Biotin), sites not stated); assay: BLI; conditions: both partners purified
# T3 chain: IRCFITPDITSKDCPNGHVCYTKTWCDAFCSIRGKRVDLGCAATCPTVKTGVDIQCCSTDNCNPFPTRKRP
# [5] = target: T4, α-bungarotoxin from Bungarus multicinctus (Bungarus multicinctus, UniProt P60615); assay: crystal structure; conditions: both partners purified
# T4 construct: source: bought: Latoxan L8115, lyophilized purified protein
# T4 sequence (P60615 22-95): as the sequence (P60615 22-95) above
# [6] = target: T5, biotinylated α-cobratoxin from Naja kaouthia (Naja kaouthia, UniProt P01391); assay: BLI; conditions: both partners purified
# [7] = target: biotinylated α-bungarotoxin from Bungarus multicinctus (Bungarus multicinctus, UniProt P60615); assay: BLI; conditions: both partners purified
# Chain of biotinylated α-bungarotoxin from Bungarus multicinctus (P60615 22-95): as the sequence (P60615 22-95) above
# [8] = target: T6, biotinylated α-elapitoxin-Dpp2d from Dendroaspis polylepis (Dendroaspis polylepis (black mamba), UniProt C0HJD7); assay: DELFIA (dissociation-enhanced lanthanide fluorescence immunoassay); conditions: one partner purified
# [9] = target: T6, biotinylated α-elapitoxin-Dpp2d from …; assay: BLI; […]; association at pH 7.4, dissociation at pH 7.4; 1:1 model, global fit; […]; conditions: both partners purified
# Target sequence in this assay (C0HJD7 whole entry): as the sequence (C0HJD7 whole entry) above
# [10] = target: T6, biotinylated α-elapitoxin-Dpp2d from …; assay: BLI; conditions: both partners purified
# Target sequence in this assay (C0HJD7 whole entry): as above
# [11] = target: T2, biotinylated α-bungarotoxin from …; assay: BLI; […]; association at pH 7.4, dissociation at pH 7.4; 1:1 global fit, […]; conditions: both partners purified; remark: listed apart in the source
# [12] = target: T2, biotinylated α-bungarotoxin from …; assay: BLI; […]; association at pH 7.4, dissociation at pH 5.5; 1:1 global fit; conditions: both partners purified
# [13] = target: T5, biotinylated α-cobratoxin from Naja …; assay: DELFIA (dissociation-enhanced lanthanide fluorescence immunoassay); conditions: one partner purified
binder,measurement,setting,value
"A12 Fab (Fab, V domains shown) VH: QVQLVQSGAEVKKPGSSVKVSCKASGGTFSSYAISWVRQAPGQGLEWMGGIIPIFGTANYAQKFQGRVTITADESTSTAYMELRSLRSDDTAVYYCARDNLGYCSGGSCYSDYYYYYMDVWGQGTLVTVSS VL: NFMLTQPHSVSESPGKTVTFSCTRSSGRIVSDYVHWYQQRPGSAPTTVIYEDNQRPSGVPDRFSGSIDSSSNSASLTISGLKTEDEADYYCQSYDSSNAYVVFGGGTKVTVL",koff,[1],0.00036 s⁻¹
same,Kd,[2],202 ± 28.2 nM
same,koff,[2],0.0093 s⁻¹
same,kon,[2],21000 M⁻¹ s⁻¹
same,Kd,[3],1.4 ± 1.2 nM
same,koff,[3],0.00015 s⁻¹
same,kon,[3],140000 M⁻¹ s⁻¹
same,Kd,[4],4.2 ± 0.9 nM
same,koff,[4],0.00021 s⁻¹ and 0.00053 s⁻¹
same,kon,[4],55000 M⁻¹ s⁻¹
"D11 scFv, 6xHis-FLAG removed with TEV protease (construct for crystals) (scFv, V domains shown, source: E. coli BL21(DE3), purified (HisTrap, TEV cleavage, SEC)) VH: QVQLVQSGAEVKKPGSSVKVSCKASGGTFSSYAISWVRQAPGQGLEWMGGIIPIFGTANYAQKFQGRVTITADESTSTAYMELRSLRSDDTAVYYCARDNLGYCSGGSCYSDYYYYYMDVWGQGTLVTVSS VL: NFMLTQPRSVSESPGKTVTISCTRSSGSIGSDYVHWYQQRPGSSPTTVIYEDNQRPSGVPDRFSGSIDSSSNSASLTISGLKTEDEADYYCQSYDRSNHEVVFGGGTKLTVL",binding result,[5],binds
"G09 Fab (Fab, V domains shown) VH: QVQLVQSGAEVKKPGSSVKVSCKASGGTFSSYAISWVRQAPGQGLEWMGGIIPIFGTANYAQKFQGRVTITADESTSTAYMELRSLRSDDTAVYYCARDNLGYCSGGSCYSDYYYYYMDVWGQGTLVTVSS VL: SYELTQPPSVSVAPGRTATITCEGDNIGQQIVHWYRQKSDQAPVVVVYDGSRRPSGIPERFSGSNSGNTATLTISRVEAGDEADYYCQVWDITSDHVVFGGGTQLTVL",binding result,[6],binds
same,binding result,[7],binds
"A04 Fab (Fab, V domains shown) VH: QVQLVQSGAEVKKPGSSVKVSCKASGGTFSSYAISWVRQAPGQGLEWMGGIIPIFGTANYAQKFQGRVTITADESTSTAYMELRSLRSDDTAVYYCARDNLGYCSGGSCYSDYYYYYMDVWGQGTLVTVSS VL: SYELTQPPSMSVAPGQTARITCGGDYIGGESVHWYQQKPGRAPVAVVYDDTHRPSGIPERFSGANSGNTATLTISKVEAGDEADYYCQVWDVSSDHVVFGGGTKLTVL",binding result,[6],binds
same,binding result,[7],binds
"C05 scFv with T31D (CDR-L1) (scFv, V domains shown, source: E. coli BL21(DE3), in culture supernatant) VH: QVQLVQSGAEVKKPGSSVKVSCKASGGTFSSYAISWVRQAPGQGLEWMGGIIPIFGTANYAQKFQGRVTITADESTSTAYMELRSLRSDDTAVYYCARDNLGYCSGGSCYSDYYYYYMDVWGQGTLVTVSS VL: NFMLTQPHSVSESPGKTVTISCTRSSGSIASDYVHWYQQRPGSAPTTVIYEDNQRPSGVPDRFSGSIDSSSNSASLTISGLKTEDEADYYCQSYDSSNGSVVFGGGTKLTVL",binding result,[8],binds
"B11 Fab (Fab, V domains shown) VH: QVQLVQSGAEVKKPGSSVKVSCKASGGTFSSYAISWVRQAPGQGLEWMGGIIPIFGTANYAQKFQGRVTITADESTSTAYMELRSLRSDDTAVYYCARDNLGYCSGGSCYSDYYYYYMDVWGQGTLVTVSS VL: SYELTQPPSVSVAPGQTATITCGGHNIGSNIVHWYHQKPGQAPELVISHNTNRPSGIPERFSGSNSGSTATLTISRVEAVDEADYYCQVWDSSSEHVVFGGGTKVTVL",binding result,[6],binds
same,binding result,[7],binds
"E01 Fab (Fab, V domains shown) VH: QVQLVQSGAEVKKPGSSVKVSCKASGGTFSSYAISWVRQAPGQGLEWMGGIIPIFGTANYAQKFQGRVTITADESTSTAYMELRSLRSDDTAVYYCARDNLGYCSGGSCYSDYYYYYMDVWGQGTLVTVSS VL: NFMLTQPRSVSESPGKTVTISCTRSSGSIGSDYVHWYQQRPGSSPTTVIYEDNRRPSGVPDRFSGSIASSANSASLTISGLRPEDEADYYCQSYDSTTNHVVFGGGTKVTVL",koff,[1],0.00049 s⁻¹
same,Kd,[2],271 ± 31.1 nM
same,koff,[2],0.0173 s⁻¹
same,kon,[2],23000 M⁻¹ s⁻¹
same,Kd,[3],1.3 ± 0.7 nM
same,koff,[3],0.00014 s⁻¹
same,kon,[3],138000 M⁻¹ s⁻¹
same,Kd,[4],6.6 ± 0.9 nM
same,kon,[4],54000 M⁻¹ s⁻¹
"D11 Fab (Fab, V domains shown, also called D11 mAb) VH: QVQLVQSGAEVKKPGSSVKVSCKASGGTFSSYAISWVRQAPGQGLEWMGGIIPIFGTANYAQKFQGRVTITADESTSTAYMELRSLRSDDTAVYYCARDNLGYCSGGSCYSDYYYYYMDVWGQGTLVTVSS VL: NFMLTQPRSVSESPGKTVTISCTRSSGSIGSDYVHWYQQRPGSSPTTVIYEDNQRPSGVPDRFSGSIDSSSNSASLTISGLKTEDEADYYCQSYDRSNHEVVFGGGTKLTVL",koff,[9],0.00015 s⁻¹
same,koff,[6],0.00012 s⁻¹
same,binding result,[7],binds
"A01 Fab (Fab, V domains shown, also called A01 mAb) VH: QVQLVQSGAEVKKPGSSVKVSCKASGGTFSSYAISWVRQAPGQGLEWMGGIIPIFGTANYAQKFQGRVTITADESTSTAYMELRSLRSDDTAVYYCARDNLGYCSGGSCYSDYYYYYMDVWGQGTLVTVSS VL: SYELTQPPSVSVAPGRTATITCEGDNIGQQIVHWYQQKPGQAPVAVISSDSDRPSGIPERFSGSNSGNTATLTISRVEAGDEADYYCQVWDSGSDHVVFGGGTKVTVL",Kd,[9],2.1 ± 0.1 nM
same,koff,[9],0.00017 s⁻¹
same,koff,[10],0.0295 s⁻¹
same,binding result,[7],binds
"D11 Fab (Fab, V domains shown) VH: QVQLVQSGAEVKKPGSSVKVSCKASGGTFSSYAISWVRQAPGQGLEWMGGIIPIFGTANYAQKFQGRVTITADESTSTAYMELRSLRSDDTAVYYCARDNLGYCSGGSCYSDYYYYYMDVWGQGTLVTVSS VL: NFMLTQPRSVSESPGKTVTISCTRSSGSIGSDYVHWYQQRPGSSPTTVIYEDNQRPSGVPDRFSGSIDSSSNSASLTISGLKTEDEADYYCQSYDRSNHEVVFGGGTKLTVL",koff,[1],0.00041 s⁻¹
same,Kd,[3],1.4 ± 0.6 nM
same,kon,[3],121000 M⁻¹ s⁻¹
same,Kd,[4],1.8 ± 0.5 nM
same,koff,[4],0.00029 s⁻¹
same,kon,[4],65000 M⁻¹ s⁻¹
same,Kd,[11],116 ± 19.6 nM
same,koff,[11],0.0047 s⁻¹
same,kon,[11],13000 M⁻¹ s⁻¹
same,koff,[12],0.005 s⁻¹
"D11 scFv with serine at position 32 (CDR-L1) and histidine at position 49 (FWR-2) (scFv, V domains shown, also called D11-Y32S-Y49H (name built from the text: serine at position His32 of D11-Y32H-Y49H); source: E. coli BL21(DE3), in culture supernatant) VH: QVQLVQSGAEVKKPGSSVKVSCKASGGTFSSYAISWVRQAPGQGLEWMGGIIPIFGTANYAQKFQGRVTITADESTSTAYMELRSLRSDDTAVYYCARDNLGYCSGGSCYSDYYYYYMDVWGQGTLVTVSS VL: NFMLTQPRSVSESPGKTVTISCTRSSGSIGSDSVHWYQQRPGSSPTTVIHEDNQRPSGVPDRFSGSIDSSSNSASLTISGLKTEDEADYYCQSYDRSNHEVVFGGGTKLTVL",binding result,[13],binds
